# Assay results as given in paper doi:10.1101/2023.10.29.564595, “The N-terminal region of DNMT3A combines multiple chromatin reading motifs to guide recruitment”.
# B1: free 175 bp Widom601 DNA (dsDNA)
# DNA 1: TATACGCGGCCGCCCTGGAGAATCCCGGTGCCGAGGCCGCTCAATTGGTCGTAGACAGCTCTAGCACCGCTTAAACGCACGTACGCGCTGTCCCCCGCGTTTTAACCGCCAAGGGGATTACTCCCTAGTCTCCAGGCACGTGTCAGATATATACATCCTGTGCAATGTGTTCCAT
# DNA 2: ATGGAACACATTGCACAGGATGTATATATCTGACACGTGCCTGGAGACTAGGGAGTAATCCCCTTGGCGGTTAAAACGCGGGGGACAGCGCGTACGTGCGTTTAAGCGGTGCTAGAGCTGTCTACGACCAATTGAGCGGCCTCGGCACCGGGATTCTCCAGGGCGGCCGCGTATA
# Molecular target: DNMT3A1 1-427 R181A/R183A (human, UniProt Q9Y6K1 1-427, R181A;R183A)
# Sequence (Q9Y6K1 1-427 R181A/R183A): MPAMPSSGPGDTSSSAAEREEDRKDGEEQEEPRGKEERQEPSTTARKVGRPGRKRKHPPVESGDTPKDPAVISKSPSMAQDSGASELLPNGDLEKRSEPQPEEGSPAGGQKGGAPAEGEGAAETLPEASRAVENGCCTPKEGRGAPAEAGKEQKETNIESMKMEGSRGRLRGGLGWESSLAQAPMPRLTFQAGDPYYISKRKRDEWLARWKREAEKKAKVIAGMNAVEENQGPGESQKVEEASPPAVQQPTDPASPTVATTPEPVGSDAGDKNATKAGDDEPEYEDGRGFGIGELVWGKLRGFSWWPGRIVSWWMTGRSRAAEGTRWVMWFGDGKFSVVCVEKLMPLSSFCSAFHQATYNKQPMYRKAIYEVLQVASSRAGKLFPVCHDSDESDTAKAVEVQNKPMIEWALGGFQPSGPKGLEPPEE
# Test: EMSA; only marginally affected; EMSA: 15 mM HEPES pH 7.5, 75 mM NaCl, 0.05% Triton X-100, 0.05 mg/mL BSA, 10% glycerol, 1 mM DTT, 0.5 mg/mL salmon sperm DNA (nucleosomes), 2.4 nM tracer, 1 h on ice; full-length complex: 17.5 mM HEPES pH 8, 150 mM NaCl, 1.5 mM MgCl2, 2.5% glycerol, 1 mM DTT, 0.1 mg/mL BSA, on ice
# Conditions: protein: recombinant; tags: His-MBP; label: 5' 6-FAM; blunt
binder,measurement,value
B1,binding result,binds
